Results taken from patent publication US20230184787A1 (NORDIC BIOSCIENCE A S, published 2023).

T1: full-length human calprotectin (heterodimer of S100A9 and S100A8) (Homo sapiens, UniProt P06702 1-114; P05109 1-93)
T1 construct: also called intact full-length human calprotectin; purified calprotectin
T1 sequence (looked up) 1: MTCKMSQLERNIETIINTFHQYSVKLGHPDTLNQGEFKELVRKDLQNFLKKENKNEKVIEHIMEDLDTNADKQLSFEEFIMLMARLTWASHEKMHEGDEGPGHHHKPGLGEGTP
T1 sequence (looked up) 2: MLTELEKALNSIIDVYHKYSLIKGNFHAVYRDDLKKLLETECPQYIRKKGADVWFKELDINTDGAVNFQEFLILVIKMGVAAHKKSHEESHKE

T2: human neutrophil elastase (human, UniProt P08246 30-247, limits assumed)
T2 construct: also called HNE
T2 sequence (looked up): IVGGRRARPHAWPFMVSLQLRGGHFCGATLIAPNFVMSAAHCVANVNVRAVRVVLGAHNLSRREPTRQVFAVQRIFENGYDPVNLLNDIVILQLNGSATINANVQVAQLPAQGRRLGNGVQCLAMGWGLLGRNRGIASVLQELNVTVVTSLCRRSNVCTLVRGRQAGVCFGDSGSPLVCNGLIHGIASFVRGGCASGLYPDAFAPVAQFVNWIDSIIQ

T3: elongated peptide VKLGHPDTLNQ (Homo sapiens)
T3 construct: also called N-extended elongated version
T3 peptide: VKLGHPDTLNQ

T4: non-sense peptide YRDDLKKLLET (Homo sapiens)
T4 construct: also called NBH-225
T4 peptide: YRDDLKKLLET

T5: truncated peptide LGHPDTLNQ (Homo sapiens)
T5 construct: also called N-truncated shortened version
T5 peptide: LGHPDTLNQ

B1: CPa9-HNE antibody (antibody, mouse IgG1, kappa, V domains shown)
VH: QVQLQQSGPELVKPGASVKMSCKASGYTFTDHVINWVRQRTGQGLEWIGEIYPGSGSTYYNEKFKGKATLTADKSSNTAYMQLSSLTSEDSAVYFCAWFAYWGQGTLVTVSA
VL: DIVMTQSPSSLSVSAGEKVTMSCKSSQSLLNSGNQKNYLAWYQQKPGQPPKLLIYGASTRESGVPDRFTGSGSGTDFTLTISSVQAEDLAVYYCLNDHSYPYTFGGGTKLEIKR
notes: also called monoclonal antibody targeting CPa9-HNE
B2: selection peptide KLGHPDTLNQ (peptide)
peptide: KLGHPDTLNQ
notes: also called calibrator peptide

Columns and labels:
[1] = target: T1, full-length human calprotectin …; assay: competitive ELISA (CPa9-HNE assay) on in vitro cleavage samples and controls, FIG. 2C
Protocol: (§1) Samples were diluted in incubation buffer containing 1% bovine serum albumin (Sigma Aldrich, cat. No. a-7906, 98 purity) to maintain protein stability and for blocking. Samples and controls were added to the wells and incubated with the primary monoclonal antibody against the HNE-generated neo-epitope (CPa9-HNE), at 20° C. for 1 hour and agitated at 300 rpm. Unbound primary antibody and sample were discarded, and the wells were washed with washing buffer. Subsequently, HRP conjugated AffiniPure Rabbit anti-mouse IgG secondary antibodies (Jackson cat. No 315-035-045) was added to the wells and incubated for 1 hour at 20° C. Unbound secondary antibody was discarded by washing the wells in washing buffer. Chemiluminescence substrate (Roche Diagnostic's cat. No. 11582950001) was added to the well (100 μl/well), and the plates were incubated for 3 minutes at room temperature before reading the plates. Finally, an ELISA reader (VersaMAX; Molecular Devices, Wokingham Berkshire, UK) was used to quantify the relative light units (RLU) emitted from the plates […]. A standard curve was plotted using a 4-parametric mathematical fit model. […]

[2] = target: T2, human neutrophil elastase; assay: as above
Protocol: as §1

[3] = target: T3, elongated peptide VKLGHPDTLNQ; assay: competitive ELISA (CPa9-HNE assay), peptide specificity test, FIG. 2B
Protocol: (§2) No. 11940279, Hvidovre, Denmark) were coated with a biotinylated antigen ([…]-K-Biotin (SEQ ID NO: 27)) by incubation with the biotinylated antigen for 30 minutes at room temperature. Unbound biotinylated coater antigen was discarded, and the wells were washed with washing buffer (25 mM TRIZMA, 50 mM NaCl, 0.036% Bronidox L5, 0.1% Tween 20) using a standardized ELISA plate washing machine (BioTek® Instruments, Microplate washer, ELx405 Select CW, Winooski, USA). Samples were diluted in incubation buffer containing 1% bovine serum albumin (Sigma Aldrich, cat. No. a-7906, 98 purity) to maintain protein stability and for blocking. Samples and controls were added to the wells and incubated with the primary monoclonal antibody against the HNE-generated neo-epitope (CPa9-HNE), at 20° C. for 1 hour and agitated at 300 rpm. Unbound primary antibody and sample were discarded, and the wells were washed with washing buffer. Subsequently, HRP conjugated AffiniPure Rabbit anti-mouse IgG secondary antibodies (Jackson cat. No 315-035-045) was added to the wells and incubated for 1 hour at 20° C. Unbound secondary antibody was discarded by washing the wells in washing buffer. Chemiluminescence substrate (Roche Diagnostic's cat. No. 11582950001) was added to the well (100 μl/well), and the plates were incubated for 3 minutes at room temperature before reading the plates. Finally, an ELISA reader (VersaMAX; Molecular Devices, Wokingham Berkshire, UK) was used to quantify the relative light units (RLU) emitted from the plates […]. A standard curve was plotted using a 4-parametric mathematical fit model.
(§3) A monoclonal antibody (also referred to herein as the CPa9-HNE antibody) targeting CPa9-HNE (the HNE-generated N-terminus neo-epitope of NBH-222) was developed and used in an ELISA protocol as described above (also referred to hereinafter as the CPa9-HNE assay), and the specificity of this antibody when used in this immunoassay was tested against the selection peptide and the elongated peptide, truncated peptide and non-sense peptide (having the sequences set out in Table 1).

[4] = target: B2; assay: as above
Protocol: as §2, §3

[5] = target: T4, non-sense peptide YRDDLKKLLET; assay: as above
Protocol: as §2, §3

[6] = target: T5, truncated peptide LGHPDTLNQ; assay: as above
Protocol: as §2, §3

CPa9-HNE antibody = target: B1; assay: competitive ELISA: standard (calibrator) peptide in solution competes with …-K-Biotin on streptavidin plates for the CPa9-HNE antibody; mean of the standard curves

binding result [1]	binding result [2]	binding result [3]	binding result [4]	binding result [5]	binding result [6]	IC50 (CPa9-HNE antibody)	Binder
no binding	no binding	no binding	binds	no binding	no binding		B1
						0.0783 µg/mL	B2
